Measured values reported in paper PMC6561178, “Caulobacter crescentus Hfq structure reveals a conserved mechanism of RNA annealing regulation”.
Blank lines part the entries; values can stand above or below the molecule they belong to.

How the values were obtained:
[1] = biological target: Caulobacter crescentus Hfq (Caulobacter crescentus); assay: crystal structure; hanging-drop vapor diffusion; Cc Hfq at 7 mg/mL; 0.2 M sodium thiocyanate, 17% PEG 3350; 2.15 Å; four hexamers in the asymmetric unit, space group P4_(3)
[2] = biological target: T1, Ec65 (Escherichia coli, UniProt P0A6X3 1-65, del66-102); assay: EMSA; Hill n 3.1; EMSA: 34 mM Tris-HCl pH 7.5, 50 mM NaCl, 50 mM KCl, 50 mM NH4Cl, 11.4 mM EDTA, 12% glycerol, 30 C, 30 min, ~1 nM 32P-RNA, Kd in Hfq6; anisotropy: 10 mM Tris-HCl; conditions: protein: recombinant; tags: untagged; chain copies: 6; label: 32P; stem-loops
[3] = biological target: T2, EcCc Hfq (Escherichia coli / Caulobacter …, UniProt P0A6X3 1-67+B8GW92:71-82, internal_change); assay: EMSA; Hill n 4.5; EMSA: 34 mM Tris-HCl pH 7.5, 50 mM NaCl, 50 mM KCl, 50 mM NH4Cl, 11.4 mM EDTA, 12% glycerol, 30 C, 30 min, ~1 nM 32P-RNA, Kd in Hfq6; anisotropy: 10 mM Tris-HCl; conditions: protein: recombinant; tags: untagged; chain copies: 6; label: 32P; stem-loops
[4] = biological target: T3, Cc78 (Caulobacter crescentus NA1000, UniProt B8GW92 1-78, del79-82); assay: EMSA; Hill n 5.5; EMSA: 34 mM Tris-HCl pH 7.5, 50 mM NaCl, 50 mM KCl, 50 mM NH4Cl, 11.4 mM EDTA, 12% glycerol, 30 C, 30 min, ~1 nM 32P-RNA, Kd in Hfq6; anisotropy: 10 mM Tris-HCl; conditions: protein: recombinant; tags: untagged after self-cleaved intein; chain copies: 6; label: 32P; stem-loops
T3 sequence: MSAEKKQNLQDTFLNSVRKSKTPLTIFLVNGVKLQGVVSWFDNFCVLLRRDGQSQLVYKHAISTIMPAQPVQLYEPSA

[5] = biological target: T4, Ec Hfq (Hfq102) (Escherichia coli, UniProt P0A6X3 1-102); assay: EMSA; Hill n 4.1; EMSA: 34 mM Tris-HCl pH 7.5, 50 mM NaCl, 50 mM KCl, 50 mM NH4Cl, 11.4 mM EDTA, 12% glycerol, 30 C, 30 min, ~1 nM 32P-RNA, Kd in Hfq6; anisotropy: 10 mM Tris-HCl; conditions: protein: recombinant; tags: untagged; chain copies: 6; label: 32P; stem-loops
[6] = biological target: T1, Ec65; assay: EMSA; Hill n 3.7; EMSA: 34 mM Tris-HCl pH 7.5, 50 mM NaCl, 50 mM KCl, 50 mM NH4Cl, 11.4 mM EDTA, 12% glycerol, 30 C, 30 min, ~1 nM 32P-RNA, Kd in Hfq6; anisotropy: 10 mM Tris-HCl; conditions: protein: recombinant; tags: untagged; chain copies: 6; label: 32P; folded
[7] = biological target: T3, Cc78; assay: EMSA; Hill n 1.6; EMSA: 34 mM Tris-HCl pH 7.5, 50 mM NaCl, 50 mM KCl, 50 mM NH4Cl, 11.4 mM EDTA, 12% glycerol, 30 C, 30 min, ~1 nM 32P-RNA, Kd in Hfq6; anisotropy: 10 mM Tris-HCl; conditions: protein: recombinant; tags: untagged after self-cleaved intein; chain copies: 6; label: 32P; folded
[8] = biological target: T4, Ec Hfq (Hfq102); assay: EMSA; Hill n 13; EMSA: 34 mM Tris-HCl pH 7.5, 50 mM NaCl, 50 mM KCl, 50 mM NH4Cl, 11.4 mM EDTA, 12% glycerol, 30 C, 30 min, ~1 nM 32P-RNA, Kd in Hfq6; anisotropy: 10 mM Tris-HCl; conditions: protein: recombinant; tags: untagged; chain copies: 6; label: 32P; folded
[9] = biological target: T2, EcCc Hfq; assay: EMSA; Hill n 1.0; EMSA: 34 mM Tris-HCl pH 7.5, 50 mM NaCl, 50 mM KCl, 50 mM NH4Cl, 11.4 mM EDTA, 12% glycerol, 30 C, 30 min, ~1 nM 32P-RNA, Kd in Hfq6; anisotropy: 10 mM Tris-HCl; conditions: protein: recombinant; tags: untagged; chain copies: 6; label: 32P; folded
[10] = biological target: T2, EcCc Hfq; assay: EMSA; Hill n 30.2; EMSA: 34 mM Tris-HCl pH 7.5, 50 mM NaCl, 50 mM KCl, 50 mM NH4Cl, 11.4 mM EDTA, 12% glycerol, 30 C, 30 min, ~1 nM 32P-RNA, Kd in Hfq6; anisotropy: 10 mM Tris-HCl; conditions: protein: recombinant; tags: untagged; chain copies: 6; label: 32P; stem-loops
[11] = biological target: T4, Ec Hfq (Hfq102); assay: EMSA; Hill n 10.1; EMSA: 34 mM Tris-HCl pH 7.5, 50 mM NaCl, 50 mM KCl, 50 mM NH4Cl, 11.4 mM EDTA, 12% glycerol, 30 C, 30 min, ~1 nM 32P-RNA, Kd in Hfq6; anisotropy: 10 mM Tris-HCl; conditions: protein: recombinant; tags: untagged; chain copies: 6; label: 32P; stem-loops
[12] = biological target: T3, Cc78; assay: EMSA; Hill n 3.5; EMSA: 34 mM Tris-HCl pH 7.5, 50 mM NaCl, 50 mM KCl, 50 mM NH4Cl, 11.4 mM EDTA, 12% glycerol, 30 C, 30 min, ~1 nM 32P-RNA, Kd in Hfq6; anisotropy: 10 mM Tris-HCl; conditions: protein: recombinant; tags: untagged after self-cleaved intein; chain copies: 6; label: 32P; stem-loops
[13] = biological target: T1, Ec65; assay: EMSA; Hill n 1.0; EMSA: 34 mM Tris-HCl pH 7.5, 50 mM NaCl, 50 mM KCl, 50 mM NH4Cl, 11.4 mM EDTA, 12% glycerol, 30 C, 30 min, ~1 nM 32P-RNA, Kd in Hfq6; anisotropy: 10 mM Tris-HCl; conditions: protein: recombinant; tags: untagged; chain copies: 6; label: 32P; stem-loops
[14] = biological target: T4, Ec Hfq (Hfq102); assay: EMSA; Hill n 4.4; EMSA: 34 mM Tris-HCl pH 7.5, 50 mM NaCl, 50 mM KCl, 50 mM NH4Cl, 11.4 mM EDTA, 12% glycerol, 30 C, 30 min, ~1 nM 32P-RNA, Kd in Hfq6; anisotropy: 10 mM Tris-HCl; conditions: protein: recombinant; tags: untagged; chain copies: 6; label: 32P
[15] = biological target: T1, Ec65; assay: EMSA; Hill n 2.4; EMSA: 34 mM Tris-HCl pH 7.5, 50 mM NaCl, 50 mM KCl, 50 mM NH4Cl, 11.4 mM EDTA, 12% glycerol, 30 C, 30 min, ~1 nM 32P-RNA, Kd in Hfq6; anisotropy: 10 mM Tris-HCl; conditions: protein: recombinant; tags: untagged; chain copies: 6; label: 32P; stem-loops
[16] = biological target: T3, Cc78; assay: EMSA; Hill n 2.5; EMSA: 34 mM Tris-HCl pH 7.5, 50 mM NaCl, 50 mM KCl, 50 mM NH4Cl, 11.4 mM EDTA, 12% glycerol, 30 C, 30 min, ~1 nM 32P-RNA, Kd in Hfq6; anisotropy: 10 mM Tris-HCl; conditions: protein: recombinant; tags: untagged after self-cleaved intein; chain copies: 6; label: 32P; stem-loops
[17] = biological target: T4, Ec Hfq (Hfq102); assay: EMSA; Hill n 11.9; EMSA: 34 mM Tris-HCl pH 7.5, 50 mM NaCl, 50 mM KCl, 50 mM NH4Cl, 11.4 mM EDTA, 12% glycerol, 30 C, 30 min, ~1 nM 32P-RNA, Kd in Hfq6; anisotropy: 10 mM Tris-HCl; conditions: protein: recombinant; tags: untagged; chain copies: 6; label: 32P; stem-loops
[18] = biological target: T2, EcCc Hfq; assay: EMSA; Hill n 8.7; EMSA: 34 mM Tris-HCl pH 7.5, 50 mM NaCl, 50 mM KCl, 50 mM NH4Cl, 11.4 mM EDTA, 12% glycerol, 30 C, 30 min, ~1 nM 32P-RNA, Kd in Hfq6; anisotropy: 10 mM Tris-HCl; conditions: protein: recombinant; tags: untagged; chain copies: 6; label: 32P; stem-loops
[19] = biological target: T3, Cc78; assay: EMSA; Hill n 1.2; EMSA: 34 mM Tris-HCl pH 7.5, 50 mM NaCl, 50 mM KCl, 50 mM NH4Cl, 11.4 mM EDTA, 12% glycerol, 30 C, 30 min, ~1 nM 32P-RNA, Kd in Hfq6; anisotropy: 10 mM Tris-HCl; conditions: protein: recombinant; tags: untagged after self-cleaved intein; chain copies: 6; label: 32P; stem-loops
[20] = biological target: T4, Ec Hfq (Hfq102); assay: EMSA; Hill n 1; Tris-glycine gel; EMSA: 34 mM Tris-HCl pH 7.5, 50 mM NaCl, 50 mM KCl, 50 mM NH4Cl, 11.4 mM EDTA, 12% glycerol, 30 C, 30 min, ~1 nM 32P-RNA, Kd in Hfq6; anisotropy: 10 mM Tris-HCl; conditions: protein: recombinant; tags: untagged; chain copies: 6; label: 32P; stem-loops
[21] = biological target: T2, EcCc Hfq; assay: EMSA; Hill n 1.8; EMSA: 34 mM Tris-HCl pH 7.5, 50 mM NaCl, 50 mM KCl, 50 mM NH4Cl, 11.4 mM EDTA, 12% glycerol, 30 C, 30 min, ~1 nM 32P-RNA, Kd in Hfq6; anisotropy: 10 mM Tris-HCl; conditions: protein: recombinant; tags: untagged; chain copies: 6; label: 32P; stem-loops
[22] = biological target: T1, Ec65; assay: EMSA; Hill n 1.7; EMSA: 34 mM Tris-HCl pH 7.5, 50 mM NaCl, 50 mM KCl, 50 mM NH4Cl, 11.4 mM EDTA, 12% glycerol, 30 C, 30 min, ~1 nM 32P-RNA, Kd in Hfq6; anisotropy: 10 mM Tris-HCl; conditions: protein: recombinant; tags: untagged; chain copies: 6; label: 32P; stem-loops
[23] = biological target: T4, Ec Hfq (Hfq102); assay: EMSA; Hill n 2.2; EMSA: 34 mM Tris-HCl pH 7.5, 50 mM NaCl, 50 mM KCl, 50 mM NH4Cl, 11.4 mM EDTA, 12% glycerol, 30 C, 30 min, ~1 nM 32P-RNA, Kd in Hfq6; anisotropy: 10 mM Tris-HCl; conditions: protein: recombinant; tags: untagged; chain copies: 6; label: 32P

stoichiometry N [1]: 6
Molecule: Caulobacter crescentus Hfq (natural protein)

B1: RybB (structured_RNA)
RNA: GGCCACUGCUUUUCUUUGAUGUCCCCAUUUUGUGGAGCCCAUCAACCCCGCCAUUUCGGUUCAAGGUUGAUGGGUUUUUU
Kd [2]: 27.1 ± 0.9 nM
Kd [3]: 37.3 ± 6.2 nM
Kd [4]: 68.1 ± 1.9 nM
Kd [5]: 21.5 ± 2 nM

B2: RydC (structured_RNA)
RNA: GGCUUCCGAUGUAGACCCGUAUUCUUCGCCUGUACCACGGGUCGGUUUUAGUACAGGCGUUUUCUU
Kd [6]: 12.3 ± 0.4 nM
Kd [7]: 167 ± 11 nM
Kd [8]: 22.1 ± 0.2 nM
Kd [9]: 237 ± 34 nM

B3: ChiX (structured_RNA)
RNA: GGGACACCGUCGCUUAAAGUGACGGCAUAAUAAUAAAAAAAUGAAAUUCCUCUUUGACGGGCCAAUAGCGAUAUUGGCCAUUUUUUU
Kd [10]: 35.8 ± 0.4 nM
Kd [11]: 20.3 ± 0.4 nM
Kd [12]: 32.4 ± 0.4 nM
Kd [13]: 95 ± 27 nM

B4: hns (structured_RNA)
RNA: GAACAAACCACCCCAAUAUAAGUUUGAGAUUACUACAAUGAGCGAAGCACUUAAAAUUCUGAACAACAUCCGUACUCUUCGUGCGCAGGCAAGAGAAUGUACACUUGAAACGCUGGAAGAA
Kd [14]: 19.7 ± 0.4 nM

B5: DsrA (structured_RNA)
RNA: GGGAACACAUCAGAUUUCCUGGUGUAACGAAUUUUUUAAGUGCUUCUUGCUUAAGCAAGUUUCAUCCCGACCCCCUCAGGGUCGGGAUUUUUUU
Kd [15]: 12.6 ± 1.9 nM
Kd [16]: 62.2 ± 4.4 nM
Kd [17]: 21.1 ± 0.3 nM
Kd [18]: 42.5 ± 1 nM

B6: R133 (structured_RNA)
RNA: GGAGCCCUUUCGGGCGUUUCCUCCCAAUGACUCGGCCGCCCUCUUCUCCUGGAGGGCGGCCGUUCUUUU
Kd [19]: 242 ± 17 nM
Kd [20]: 14.7 ± 1.3 nM
Kd [21]: 232 ± 46 nM
Kd [22]: 21.6 ± 1.3 nM

B7: cfa (structured_RNA)
RNA: GGUUGUUAAAGCUACGAUAAAUAUUAUGUUUUUACGGGGACAGGAUCGUUCCCGACUCACUAUGGAUAGUCAUUUCGGCAAGGGUUCCUCCUUUCCCUCUGUUCUACGUCGGAUUAUAGACUCGCGGUUUUUUCUGCGAGAUUUCUCACAAAGCCCAAAAAGCGUCUACGCUGUUUUAAGGUUCUGAUCACCGACCAGUGAUGGAGAAACUAUGAGUUCAUCGUGUAUAGAAGAAGUCAGUGUACCGGAUGACAAC
Kd [23]: 19 ± 0.5 nM
